Measured values published in the supplement of paper PMC9112550, “Optimization of the antimicrobial peptide Bac7 by deep mutational scanning” (BMC Biology, 2022).

system: Escherichia coli TOP10; experiment: shrunken log2 fold change of peptide-encoding DNA abundance (4.5 h post-induction vs induction); higher = less antimicrobial activity (less host growth inhibition); conditions: time post-induction: 4.5 h; library: site-saturation at positions 5, 18, 19, 20
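Also: peptides expressed intracellularly from a pBAD plasmid library in pooled LB shake-flask culture, induced with 0.3% L-arabinose, DNA abundance read by NGS, three biological replicates, DESeq2 with apeglm shrinkage.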

Sequence | shrunken log2 fold change
RRIRWRPPRLPRPRPRPSEFPRP | 0.144
RRIRARPPRLPRPRPRPRGHPRP | 0.644
RRIRERPPRLPRPRPRPEENPRP | 0.127
RRIRSRPPRLPRPRPRPKLAPRP | 0.245
RRIRVRPPRLPRPRPRPNGCPRP | 0.0454
RRIRCRPPRLPRPRPRPTHRPRP | 0.426
RRIRDRPPRLPRPRPRPHYTPRP | -0.73
RRIRFRPPRLPRPRPRPHRVPRP | -0.137
RRIRRRPPRLPRPRPRPNAIPRP | -0.116
RRIRGRPPRLPRPRPRPFWWPRP | 0.806
RRIRERPPRLPRPRPRPHEEPRP | 0.13
RRIRARPPRLPRPRPRPERGPRP | 0.305
RRIRYRPPRLPRPRPRPHIDPRP | -1.95
RRIRVRPPRLPRPRPRPRQIPRP | 0.0436
RRIRIRPPRLPRPRPRPVHIPRP | -0.155
RRIRQRPPRLPRPRPRPRKVPRP | -0.00271
RRIRRRPPRLPRPRPRPAENPRP | 0.0557
RRIRIRPPRLPRPRPRPCWYPRP | -0.461
RRIRVRPPRLPRPRPRPMVHPRP | 0.141
RRIRFRPPRLPRPRPRPIPEPRP | 0.236
RRIRCRPPRLPRPRPRPTQPPRP | 0.222
RRIRCRPPRLPRPRPRPFVVPRP | -0.633
RRIRPRPPRLPRPRPRPTKWPRP | 0.187
RRIRGRPPRLPRPRPRPVIMPRP | 0.258
RRIRTRPPRLPRPRPRPAMRPRP | 0.445

Sequence | shrunken log2 fold change
RRIRMRPPRLPRPRPRPMILPRP | -0.0491
RRIRIRPPRLPRPRPRPSEIPRP | 0.0838
RRIRQRPPRLPRPRPRPCIKPRP | 0.155
RRIRKRPPRLPRPRPRPFQKPRP | 0.0267
RRIRMRPPRLPRPRPRPDPAPRP | 1.13
RRIRFRPPRLPRPRPRPAFYPRP | -0.249
RRIRVRPPRLPRPRPRPKYCPRP | -0.221
RRIRPRPPRLPRPRPRPSVNPRP | -0.44
RRIRLRPPRLPRPRPRPAMSPRP | 0.019
RRIRLRPPRLPRPRPRPKRSPRP | 0.558
RRIRRRPPRLPRPRPRPQLLPRP | 0.537
RRIRHRPPRLPRPRPRPKAFPRP | 0.0173
RRIRWRPPRLPRPRPRPNSVPRP | -0.325
RRIRKRPPRLPRPRPRPCGFPRP | 0.279
RRIRCRPPRLPRPRPRPHIWPRP | -0.6
RRIRHRPPRLPRPRPRPDSTPRP | 0.12
RRIRPRPPRLPRPRPRPQYHPRP | -0.68
RRIRHRPPRLPRPRPRPGSFPRP | -0.176
RRIRTRPPRLPRPRPRPFRAPRP | -0.597
RRIRWRPPRLPRPRPRPSHVPRP | -0.167
RRIRWRPPRLPRPRPRPSASPRP | 0.363
RRIRERPPRLPRPRPRPKDMPRP | 0.00303
RRIRCRPPRLPRPRPRPRDGPRP | 1
RRIRWRPPRLPRPRPRPETHPRP | 0.756
RRIRMRPPRLPRPRPRPIDNPRP | 0.213

Sequence | shrunken log2 fold change
RRIRHRPPRLPRPRPRPAFIPRP | -0.037
RRIRFRPPRLPRPRPRPDNNPRP | -0.4
RRIRDRPPRLPRPRPRPCTIPRP | -0.23
RRIRNRPPRLPRPRPRPIGVPRP | 0.249
RRIRWRPPRLPRPRPRPPIRPRP | -0.0117
RRIRTRPPRLPRPRPRPTVPPRP | 0.0189
RRIRLRPPRLPRPRPRPWIGPRP | -0.177
RRIRKRPPRLPRPRPRPVQQPRP | 0.368
RRIRFRPPRLPRPRPRPREKPRP | -0.0136
RRIRWRPPRLPRPRPRPRDIPRP | -0.244
RRIRWRPPRLPRPRPRPTYDPRP | 1.48
RRIRRRPPRLPRPRPRPARLPRP | 0.269
RRIRPRPPRLPRPRPRPLAVPRP | 0.161
RRIRCRPPRLPRPRPRPYTAPRP | -0.595
RRIRGRPPRLPRPRPRPTFFPRP | 0.412
RRIRHRPPRLPRPRPRPPMAPRP | 0.197
RRIRPRPPRLPRPRPRPYTWPRP | -0.446
RRIRWRPPRLPRPRPRPRWKPRP | -0.0506
RRIRLRPPRLPRPRPRPCQEPRP | -0.0108
RRIRKRPPRLPRPRPRPPDCPRP | 1.03
RRIRPRPPRLPRPRPRPNTDPRP | -0.374
RRIRCRPPRLPRPRPRPKSPPRP | -0.1
RRIRTRPPRLPRPRPRPIPTPRP | -0.606
RRIRLRPPRLPRPRPRPFCTPRP | -0.105
RRIRTRPPRLPRPRPRPWSWPRP | -0.0374
